In the supplement of paper PMC7125110:
± gives the standard error. Fewer inactive variants are shown than the library holds.

B1: glmS ribozyme (parent)
chain: AUAAAAGCGCCAGAACUACAGAAAUGUAGUUGACGAGGAGGAGGUUUAUCGAAUUUUCGGCGGAUGCCUCCAAA

Legend:
Settings in all cases: with glucosamine-6-phosphate
glucosamine-6-phosphate [1] = variants of: B1; assay: self-cleavage kobs at 40 uM GlcN6P; higher = faster cleavage; RNA array
Method in brief: (§1)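 A hybridised Cy3 probe tracked barcoded ribozyme variants, transcribed in situ by E. coli RNA polymerase on sequenced MiSeq chips, at 37 °C. The variants received 40 μM to 10 mM glucosamine-6-phosphate in HEPES/KCl/Mg(OAc)2 buffer. kobs came from decay fits and kcat and KM from weighted Michaelis–Menten fits.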

glucosamine-6-phosphate [2] = variants of: B1; assay: self-cleavage kobs at 10000 uM GlcN6P; higher = faster cleavage; RNA array
Method in brief: as §1

glucosamine-6-phosphate [3] = variants of: B1; assay: self-cleavage kobs at 160 uM GlcN6P; higher = faster cleavage; RNA array
Method in brief: as §1

glucosamine-6-phosphate [4] = variants of: B1; assay: self-cleavage kobs at 640 uM GlcN6P; higher = faster cleavage; RNA array
Method in brief: as §1

glucosamine-6-phosphate [5] = variants of: B1; assay: self-cleavage kobs at 2500 uM GlcN6P; higher = faster cleavage; RNA array
Method in brief: as §1

Variant	self-cleavage kobs at 40 uM GlcN6P (glucosamine-6-phosphate [1]) [s⁻¹]	self-cleavage kobs at 10000 uM GlcN6P (glucosamine-6-phosphate [2]) [s⁻¹]	self-cleavage kobs at 160 uM GlcN6P (glucosamine-6-phosphate [3]) [s⁻¹]	self-cleavage kobs at 640 uM GlcN6P (glucosamine-6-phosphate [4]) [s⁻¹]	self-cleavage kobs at 2500 uM GlcN6P (glucosamine-6-phosphate [5]) [s⁻¹]
U30C G37C C58A G60U	< 1e-05	< 1e-05			
U30A G63U	< 1e-05	< 1e-05	< 1e-05		
G29U A42C C58A C67G	< 1e-05			< 1e-05	< 1e-05
G29C G38U A48C	< 1e-05	< 1e-05		< 1e-05	
G29U G35U C70U	< 1e-05				< 1e-05
C16G G29U U46G	4.6e-05 ± 1.8e-05	0.00136 ± 0.00039			
C16G G35U	< 1e-05	< 1e-05	< 1e-05	< 1e-05	< 1e-05
G29C A33C U69A	< 1e-05				
G26U U46G	0.000306 ± 7.3e-05	0.00888 ± 0.0026			
C16U G40U C68G	< 1e-05	< 1e-05	< 1e-05		
C16A U55A	7.92e-05 ± 1.5e-05	0.00285 ± 0.00043			0.000515 ± 0.00022
U30G A36U G51A	< 1e-05				
A15U G29A G43A	< 1e-05	< 1e-05			
G29C G40C U65C	< 1e-05				
G29A G38A U46G C61U	< 1e-05	< 1e-05			
U30C G62C	< 1e-05	< 1e-05		< 1e-05	
G29C G62U	< 1e-05		< 1e-05		
G29C G62A	< 1e-05			< 1e-05	
U30A A48G	< 1e-05		< 1e-05	< 1e-05	
U30A U49C U55A	< 1e-05				
G29U G35A G40C A42G	< 1e-05				
U30A G38A U65C C70G	< 1e-05	< 1e-05		< 1e-05	
G29C U56A	4.47e-05 ± 1.2e-05	0.00136 ± 0.00016	2.63e-05 ± 1.3e-05	0.000209 ± 3.6e-05	0.000439 ± 8.7e-05
C16U U30G	4.04e-05 ± 1.4e-05	0.00235 ± 0.00062	6.14e-05 ± 1.5e-05	0.000244 ± 6.5e-05	0.000944 ± 0.00032
A15U G32U A33U	< 1e-05				
U30A C50G U54A U69G	5.79e-05 ± 1.6e-05				
